The values below come from FireProtDB (doi:10.1021/ja068849o).

For this data set the following is noted: Escherichia coli (strain K12); pH 9.2; 37 °C; Urea; Fluorescence; Glycine 10 mM; reversible: Yes; whole UniProt chain shown.

B1: Outer membrane protein A wild type, P0A910 (protein)
chain: MKKTAIAIAVALAGFATVAQAAPKDNTWYTGAKLGWSQYHDTGFINNNGPTHENQLGAGAFGGYQVNPYVGFEMGYDWLGRMPYKGSVENGAYKAQGVQLTAKLGYPITDDLDIYTRLGGMVWRADTKSNVYGKNHDTGVSPVFAGGVEYAITPEIATRLEYQWTNNIGDAHTIGTRPDNGMLSLGVSYRFGQGEAAPVVAPAPAPAPEVQTKHFTLKSDVLFNFNKATLKPEGQAALDQLYSQLSNLDPKDGSVVVLGYTDRIGSDAYNQGLSERRAQSVVDYLISKGIPADKISARGMGESNPVTGNTCDNVKQRAALIDCLAPDRRVEIEVKGIKDVVTQPQA
As to B1, the denaturant m value came to 2.2 kcal/mol/M, the “denaturant midpoint (higher = more stable)” value was 4.2 M and the unfolding free energy was 9.3 kcal/mol.
